Where “and” joins values, the source holds several entries; their conditions need not be identical. Equal entries are not always repeated. A value given as a limit tells only on which side of the number the result lay.

Holding throughout (test): AUC
Assay [1] deals with TDP-43 CTD S→E S273C, disulfide cross-linked dimer (human).
The target of assay [2] is TDP-43 CTD S→E S305C, disulfide cross-linked dimer (human).
Assay [3] has as its target TDP-43 CTD S→E S317C, disulfide cross-linked dimer (human).

For “TDP-43 CTD S→E S273C, disulfide cross-linked dimer (domain or fragment)”, in assay [1], the fraction of tetramer was under 1%.
As a reminder, the stoichiometry N is the number of molecules, sites or subunits per partner or assembly. As to “TDP-43 CTD S→E S305C, disulfide cross-linked dimer (domain or fragment)”, in assay [2], the Kd dimer-tetramer amounted to 58 µM; the Kd tetramer-octamer worked out at 4.7 µM; the stoichiometry N is 4 and 8.
What is called Kd is the constant that tells how readily two partners part at equilibrium. As to “TDP-43 CTD S→E S317C, disulfide cross-linked dimer (domain or fragment)”, in assay [3], the Kd turned out to be 46 µM and the stoichiometry N was 4.
